Data from the supplement of paper PMC10065799, “High-throughput profiling of sequence recognition by tyrosine kinases and SH2 domains using bacterial peptide display” (eLife, 2023).

Each sequence was assayed on c-Src (assay: phosphorylation enrichment, bacterial display (enrichment ratio); higher = better substrate or ligand; peptides without Tyr show the background).
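Throughout, for SH2 binding enrichment of the phosphorylated peptide, bacterial display: peptide library displayed on the E. coli surface as eCPX fusions, selected cells deep-sequenced, score is each peptide's frequency after selection divided by its frequency in the input.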
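Throughout, for phosphorylation enrichment, bacterial display: 11-residue human phosphosite peptides and single-mutation variants displayed on the E. coli surface, counted by deep sequencing, each peptide's frequency after selection divided by its frequency in the unselected input library; frequency after pTyr selection over input frequency; kinase dosed for 20-30% of maximal phosphorylation in three min.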

Row | Sequence | phosphorylation enrichment
1 | TYGVLYKARNK [CDK2_Y19_V18L] | 3.29
2 | FADIAYNYRDG [PAH_Y166_H170D] | 0.418
3 | RLLREYQELMN [KRT75_Y434] | 0.421
4 | ETCLAYREKRI [TEKT1_Y118] | 0.423
5 | RDMNACIRPSP [MMAA_Y207_Y207C] | 0.375
6 | RVQQIYSDSDL [MIB1_Y376] | 5.32
7 | SGVVPYEPPEV [TP53_Y220_V216G] | 0.481
8 | LFSLGYHQSRW [GANAB_Y396] | 0.454
9 | NQNIGYELGHR [KCNN3_Y268_K269E] | 0.305
10 | IRQDDYESLKE [MTR_Y921_H920D] | 0.533
11 | GVLKEYGEKVL [CPS1_Y529_V531E] | 0.396
12 | MILSAYALGGL [CPS1_Y590_R587L] | 0.584
13 | LAIELYVVVCK [RHO_Y136_R135L] | 1.11
14 | YALAEYTEVKT [ALDH1A3_Y497] | 0.658
15 | ADARMYGVLPR [PLP1_Y207_W212R] | 0.727
16 | LEQRPYRRGSE [KCNJ12_Y427_E430G] | 0.399
17 | CTTIHYNFVCN [TP53_Y234_M237V_YF] | 0.532

Row | Sequence | phosphorylation enrichment
18 | GGDVIYKGFED [NFU1_Y194] | 2.75
19 | LRSRVYEVPVE [SLC26A3_Y756_N753S] | 0.708
20 | KSELAYEIFDK [MYOM2_Y1024] | 4.27
21 | CTTIHYNFMGN [TP53_Y234_C238G_YF] | 0.402
22 | AVLVQYYMEHH [PTPN11_Y80_E76V] | 0.596
23 | RNYGTYTAGLS [RHBDD1_Y264_D262G] | 1.94
24 | MGGSLYFSYPD [HIKESHI_Y55_V54L] | 4.41
25 | HAVFVYDICHV [TWNK_Y508_YF] | 4.61
26 | LARNMYDKEYY [MET_Y1230_D1228N] | 0.611
27 | LLANAYIFDVQ [L1CAM_Y418_V421D_YF] | 1.03
28 | RLLRGHDQFAF [HLA-B_Y137_YF] | 0.505
29 | IDFARYWHGND [MMP11_Y162_D166N] | 0.345
30 | EVEFEYPFRLH [SYP_Y73] | 0.588
31 | FRQNGYIPGSN [PCDHGA1_Y895_V894G_YF] | 0.435
32 | DAVKHYMQFRK [CNGA2_Y395] | 0.441
33 | YGPPQYNIQYS [ERBB2IP_Y977] | 0.617

Each sequence was assayed against Grb2 SH2 (UniProt P62993) (assay: SH2 binding enrichment of the phosphorylated peptide, bacterial display (enrichment ratio); higher = better substrate or ligand; peptides without Tyr show the background).
Sequence of Grb2 SH2 (P62993 whole entry, looked up): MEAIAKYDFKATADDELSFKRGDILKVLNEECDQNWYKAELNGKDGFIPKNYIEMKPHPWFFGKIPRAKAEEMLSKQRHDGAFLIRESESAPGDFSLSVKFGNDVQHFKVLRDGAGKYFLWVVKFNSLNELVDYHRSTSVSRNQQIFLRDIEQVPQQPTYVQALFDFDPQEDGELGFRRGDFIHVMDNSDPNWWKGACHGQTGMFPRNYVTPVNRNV

Row | Sequence | SH2 binding enrichment
34 | TYGVLYKARNK [CDK2_Y19_V18L] | 0.962
35 | FADIAYNYRDG [PAH_Y166_H170D] | 1.12
36 | RLLREYQELMN [KRT75_Y434] | 1.04
37 | ETCLAYREKRI [TEKT1_Y118] | 0.948
38 | RDMNACIRPSP [MMAA_Y207_Y207C] | 0.969
39 | RVQQIYSDSDL [MIB1_Y376] | 0.842
40 | SGVVPYEPPEV [TP53_Y220_V216G] | 0.814
41 | LFSLGYHQSRW [GANAB_Y396] | 1.15
42 | NQNIGYELGHR [KCNN3_Y268_K269E] | 0.892
43 | IRQDDYESLKE [MTR_Y921_H920D] | 0.907
44 | GVLKEYGEKVL [CPS1_Y529_V531E] | 0.921
45 | MILSAYALGGL [CPS1_Y590_R587L] | 0.835
46 | LAIELYVVVCK [RHO_Y136_R135L] | 0.976
47 | YALAEYTEVKT [ALDH1A3_Y497] | 0.66
48 | ADARMYGVLPR [PLP1_Y207_W212R] | 0.661
49 | LEQRPYRRGSE [KCNJ12_Y427_E430G] | 0.891
50 | CTTIHYNFVCN [TP53_Y234_M237V_YF] | 1.94

Row | Sequence | SH2 binding enrichment
51 | GGDVIYKGFED [NFU1_Y194] | 0.822
52 | LRSRVYEVPVE [SLC26A3_Y756_N753S] | 0.714
53 | KSELAYEIFDK [MYOM2_Y1024] | 0.956
54 | CTTIHYNFMGN [TP53_Y234_C238G_YF] | 0.96
55 | AVLVQYYMEHH [PTPN11_Y80_E76V] | 1.52
56 | RNYGTYTAGLS [RHBDD1_Y264_D262G] | 0.835
57 | MGGSLYFSYPD [HIKESHI_Y55_V54L] | 0.77
58 | HAVFVYDICHV [TWNK_Y508_YF] | 0.895
59 | LARNMYDKEYY [MET_Y1230_D1228N] | 0.843
60 | LLANAYIFDVQ [L1CAM_Y418_V421D_YF] | 1.15
61 | RLLRGHDQFAF [HLA-B_Y137_YF] | 1.06
62 | IDFARYWHGND [MMP11_Y162_D166N] | 0.807
63 | EVEFEYPFRLH [SYP_Y73] | 0.892
64 | FRQNGYIPGSN [PCDHGA1_Y895_V894G_YF] | 0.807
65 | DAVKHYMQFRK [CNGA2_Y395] | 0.847
66 | YGPPQYNIQYS [ERBB2IP_Y977] | 0.728

These sequences were tested against SHP2-C SH2 in the same assay as above.

Row | Sequence | SH2 binding enrichment
67 | TYGVLYKARNK [CDK2_Y19_V18L] | 0.624
68 | FADIAYNYRDG [PAH_Y166_H170D] | 0.575
69 | RLLREYQELMN [KRT75_Y434] | 0.995
70 | ETCLAYREKRI [TEKT1_Y118] | 0.742
71 | RDMNACIRPSP [MMAA_Y207_Y207C] | 0.444
72 | RVQQIYSDSDL [MIB1_Y376] | 0.962
73 | SGVVPYEPPEV [TP53_Y220_V216G] | 0.77
74 | LFSLGYHQSRW [GANAB_Y396] | 0.828
75 | NQNIGYELGHR [KCNN3_Y268_K269E] | 0.683
76 | IRQDDYESLKE [MTR_Y921_H920D] | 0.707
77 | GVLKEYGEKVL [CPS1_Y529_V531E] | 0.767
78 | MILSAYALGGL [CPS1_Y590_R587L] | 0.794
79 | LAIELYVVVCK [RHO_Y136_R135L] | 0.67
80 | YALAEYTEVKT [ALDH1A3_Y497] | 4.27
81 | ADARMYGVLPR [PLP1_Y207_W212R] | 0.629
82 | LEQRPYRRGSE [KCNJ12_Y427_E430G] | 0.733
83 | CTTIHYNFVCN [TP53_Y234_M237V_YF] | 1.59

Row | Sequence | SH2 binding enrichment
84 | GGDVIYKGFED [NFU1_Y194] | 0.625
85 | LRSRVYEVPVE [SLC26A3_Y756_N753S] | 0.461
86 | KSELAYEIFDK [MYOM2_Y1024] | 0.776
87 | CTTIHYNFMGN [TP53_Y234_C238G_YF] | 0.788
88 | AVLVQYYMEHH [PTPN11_Y80_E76V] | 1.87
89 | RNYGTYTAGLS [RHBDD1_Y264_D262G] | 0.512
90 | MGGSLYFSYPD [HIKESHI_Y55_V54L] | 0.605
91 | HAVFVYDICHV [TWNK_Y508_YF] | 1.27
92 | LARNMYDKEYY [MET_Y1230_D1228N] | 0.673
93 | LLANAYIFDVQ [L1CAM_Y418_V421D_YF] | 0.99
94 | RLLRGHDQFAF [HLA-B_Y137_YF] | 0.724
95 | IDFARYWHGND [MMP11_Y162_D166N] | 0.708
96 | EVEFEYPFRLH [SYP_Y73] | 0.899
97 | FRQNGYIPGSN [PCDHGA1_Y895_V894G_YF] | 0.607
98 | DAVKHYMQFRK [CNGA2_Y395] | 0.722
99 | YGPPQYNIQYS [ERBB2IP_Y977] | 0.986

These sequences were tested against c-Src SH2 in the same assay as above.

Row | Sequence | SH2 binding enrichment
100 | TYGVLYKARNK [CDK2_Y19_V18L] | 0.406
101 | FADIAYNYRDG [PAH_Y166_H170D] | 0.639
102 | RLLREYQELMN [KRT75_Y434] | 3.41
103 | ETCLAYREKRI [TEKT1_Y118] | 0.611
104 | RDMNACIRPSP [MMAA_Y207_Y207C] | 0.58
105 | RVQQIYSDSDL [MIB1_Y376] | 0.541
106 | SGVVPYEPPEV [TP53_Y220_V216G] | 0.49
107 | LFSLGYHQSRW [GANAB_Y396] | 0.717
108 | NQNIGYELGHR [KCNN3_Y268_K269E] | 0.672
109 | IRQDDYESLKE [MTR_Y921_H920D] | 0.514
110 | GVLKEYGEKVL [CPS1_Y529_V531E] | 0.427
111 | MILSAYALGGL [CPS1_Y590_R587L] | 0.708
112 | LAIELYVVVCK [RHO_Y136_R135L] | 0.458
113 | YALAEYTEVKT [ALDH1A3_Y497] | 5.59
114 | ADARMYGVLPR [PLP1_Y207_W212R] | 0.557
115 | LEQRPYRRGSE [KCNJ12_Y427_E430G] | 0.419
116 | CTTIHYNFVCN [TP53_Y234_M237V_YF] | 1.93

Row | Sequence | SH2 binding enrichment
117 | GGDVIYKGFED [NFU1_Y194] | 0.427
118 | LRSRVYEVPVE [SLC26A3_Y756_N753S] | 3.83
119 | KSELAYEIFDK [MYOM2_Y1024] | 0.956
120 | CTTIHYNFMGN [TP53_Y234_C238G_YF] | 0.772
121 | AVLVQYYMEHH [PTPN11_Y80_E76V] | 1.18
122 | RNYGTYTAGLS [RHBDD1_Y264_D262G] | 0.533
123 | MGGSLYFSYPD [HIKESHI_Y55_V54L] | 0.656
124 | HAVFVYDICHV [TWNK_Y508_YF] | 0.531
125 | LARNMYDKEYY [MET_Y1230_D1228N] | 0.71
126 | LLANAYIFDVQ [L1CAM_Y418_V421D_YF] | 0.913
127 | RLLRGHDQFAF [HLA-B_Y137_YF] | 0.748
128 | IDFARYWHGND [MMP11_Y162_D166N] | 0.525
129 | EVEFEYPFRLH [SYP_Y73] | 0.755
130 | FRQNGYIPGSN [PCDHGA1_Y895_V894G_YF] | 0.481
131 | DAVKHYMQFRK [CNGA2_Y395] | 0.461
132 | YGPPQYNIQYS [ERBB2IP_Y977] | 0.322
